One may read the Kd as the concentration at which binding is half-saturated. High values mean a looser complex, low ones a tighter complex.

The target of the assay is soluble His‐tagged human LRP4 (low‐density lipoprotein receptor‐related protein 4) (human) (UniProt O75096). Description: SPR. For orientation: In SPR one partner is held on a chip, and binding of the other changes the refractive index at the surface.
Sequence of UniProt O75096 (O75096 21-1725): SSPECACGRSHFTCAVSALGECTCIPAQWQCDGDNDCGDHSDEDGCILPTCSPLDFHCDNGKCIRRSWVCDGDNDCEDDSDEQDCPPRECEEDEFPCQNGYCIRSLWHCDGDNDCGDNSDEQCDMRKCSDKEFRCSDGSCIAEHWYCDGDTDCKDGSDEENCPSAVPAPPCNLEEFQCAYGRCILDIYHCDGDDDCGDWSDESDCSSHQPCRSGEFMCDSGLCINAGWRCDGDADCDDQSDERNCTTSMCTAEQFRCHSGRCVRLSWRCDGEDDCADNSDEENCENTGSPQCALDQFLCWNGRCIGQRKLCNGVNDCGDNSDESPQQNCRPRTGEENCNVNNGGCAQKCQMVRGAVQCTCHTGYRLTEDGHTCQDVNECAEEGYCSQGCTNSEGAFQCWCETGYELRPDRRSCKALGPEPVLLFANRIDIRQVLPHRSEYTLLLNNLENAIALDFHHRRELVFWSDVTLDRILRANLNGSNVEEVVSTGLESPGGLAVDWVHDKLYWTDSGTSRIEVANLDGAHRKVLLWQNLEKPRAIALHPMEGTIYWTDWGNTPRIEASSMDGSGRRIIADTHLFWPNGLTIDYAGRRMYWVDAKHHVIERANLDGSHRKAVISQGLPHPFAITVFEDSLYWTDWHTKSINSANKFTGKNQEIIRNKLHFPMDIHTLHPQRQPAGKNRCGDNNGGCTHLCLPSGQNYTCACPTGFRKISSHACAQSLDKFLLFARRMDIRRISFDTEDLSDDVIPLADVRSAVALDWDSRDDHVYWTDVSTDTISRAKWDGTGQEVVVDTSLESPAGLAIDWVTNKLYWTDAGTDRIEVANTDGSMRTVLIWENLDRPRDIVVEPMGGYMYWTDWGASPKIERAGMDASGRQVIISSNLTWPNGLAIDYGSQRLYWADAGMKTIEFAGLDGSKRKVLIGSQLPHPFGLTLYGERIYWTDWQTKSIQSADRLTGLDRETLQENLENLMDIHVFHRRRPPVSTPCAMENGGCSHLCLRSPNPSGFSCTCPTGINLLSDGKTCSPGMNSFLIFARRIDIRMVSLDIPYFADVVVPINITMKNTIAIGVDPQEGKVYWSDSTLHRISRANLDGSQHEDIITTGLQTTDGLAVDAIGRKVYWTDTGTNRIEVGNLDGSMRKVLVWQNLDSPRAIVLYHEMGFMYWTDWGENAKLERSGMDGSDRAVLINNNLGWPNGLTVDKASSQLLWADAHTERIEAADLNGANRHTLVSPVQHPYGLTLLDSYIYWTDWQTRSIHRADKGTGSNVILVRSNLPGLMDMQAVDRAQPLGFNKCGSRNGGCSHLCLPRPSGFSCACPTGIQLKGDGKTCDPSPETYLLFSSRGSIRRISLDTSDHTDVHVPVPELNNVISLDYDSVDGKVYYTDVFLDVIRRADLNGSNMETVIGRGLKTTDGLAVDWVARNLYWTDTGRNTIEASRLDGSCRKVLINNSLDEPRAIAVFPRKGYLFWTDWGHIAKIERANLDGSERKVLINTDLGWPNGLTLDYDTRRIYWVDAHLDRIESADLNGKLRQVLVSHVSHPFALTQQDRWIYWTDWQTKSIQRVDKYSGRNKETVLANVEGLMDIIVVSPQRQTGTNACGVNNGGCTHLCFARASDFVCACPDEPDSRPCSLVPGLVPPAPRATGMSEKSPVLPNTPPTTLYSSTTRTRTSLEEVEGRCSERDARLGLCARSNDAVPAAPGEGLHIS
The substance “purified soluble Scl_(K75E) (natural protein)” yielded a Kd of 35.9 µM.

Substance “purified soluble Scl_(K75Q) (natural protein)” came in with a dissociation constant Kd of 20.2 µM.

Substance “purified soluble Scl_(V136D) (natural protein)” yielded a Kd of 7.52 µM.

The values are drawn from article PMC11808424.
